Data from patent US20170342144A1 (Sanofi, published 2017).

T1: human TGFβ2 (human, UniProt P61812 303-414)
T1 construct: also called TGFβ2 homodimer
T1 sequence: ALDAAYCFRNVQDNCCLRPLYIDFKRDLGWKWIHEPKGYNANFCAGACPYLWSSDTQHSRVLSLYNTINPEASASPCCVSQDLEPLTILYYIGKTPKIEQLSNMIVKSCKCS


Tests used:
human TGFβ2 = molecular target: T1, human TGFβ2; assay: Biacore off-rate vs wt GC1008, 50 nM
Excerpt: (§1) Plasmids encoding either the GC1008 heavy chain or light chain were used as a template in PCR-based mutagenesis reactions. Mutations to the encoding DNA were made to create 155 single amino acid substitutions of the encoded heavy chain amino acid sequence and one single amino acid substitution of the encoded light chain amino acid sequence. A QuikChange® Lightning Site-Directed Mutagenesis kit (Agilent Technologies, Santa Clara Calif.) was used according to the manufacturer's instructions to create DNA mutations using a set of forward and reverse primers, either designed for a specific amino acid or for all 20 amino acids with a degenerate codon (NNK). After sequencing confirmation, identified mutant DNA was paired with a wild-type light or heavy chain DNA for transfection into an Expi293F™ host cell suspension (Life Techonologies Corp., Grand Island, N.Y.). At 4 days post-transfection, conditioned media (1 mL) was harvested and purified using a 1 mL Protein A PhyTip® column (PhyNexus, Inc., San Jose, Calif.) and a PureSpeed™ 12-channel pipette (Rainin Instrument LLC, Oakland, Calif.). Purified variant antibody samples were analyzed in duplicate on a Biacore® 3000 (GE Healthcare) at 50 nM concentrations, using the 100 RU level TGFβ1, 2, and 3 immobilized surfaces. The off-rate (kd) of the variants was divided by the kd of the wild-type control to obtain the fold change in the kd. […] A heat map was generated to visualize the results. Variants that completely lost affinity for TGFβ were shown in red without numbers.

human TGFβ1 = molecular target: T2, human TGFβ1 (human, UniProt P01137 279-390); assay: Biacore off-rate vs wt GC1008, 50 nM
T2 construct: also called TGFβ1 homodimer
T2 sequence (P01137 279-390 limits assumed): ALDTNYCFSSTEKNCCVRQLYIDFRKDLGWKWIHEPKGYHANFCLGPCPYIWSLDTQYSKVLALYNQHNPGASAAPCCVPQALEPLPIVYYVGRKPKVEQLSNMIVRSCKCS
Excerpt: as §1

Binder	kd var/kd wt (human TGFβ2)	kd var/kd wt (human TGFβ1)
D56P (antibody, V domains shown, GC1008 IgG4 variant) VH: QVQLVQSGAEVKKPGSSVKVSCKASGYTFSSNVISWVRQAPGQGLEWMGGVIPIVPIANYAQRFKGRVTITADESTSTTYMELSSLRSEDTAVYYCASTLGLVLDAMDYWGQGTLVTVSS VL: ETVLTQSPGTLSLSPGERATLSCRASQSLGSSYLAWYQQKPGQAPRLLIYGASSRAPGIPDRFSGSGSGTDFTLTISRLEPEDFAVYYCQQYADSPITFGQGTRLEIK	1.9	
S30A (antibody, V domains shown, GC1008 IgG4 variant) VH: QVQLVQSGAEVKKPGSSVKVSCKASGYTFASNVISWVRQAPGQGLEWMGGVIPIVDIANYAQRFKGRVTITADESTSTTYMELSSLRSEDTAVYYCASTLGLVLDAMDYWGQGTLVTVSS VL: ETVLTQSPGTLSLSPGERATLSCRASQSLGSSYLAWYQQKPGQAPRLLIYGASSRAPGIPDRFSGSGSGTDFTLTISRLEPEDFAVYYCQQYADSPITFGQGTRLEIK		0.7
I52P (antibody, V domains shown, GC1008 IgG4 variant) VH: QVQLVQSGAEVKKPGSSVKVSCKASGYTFSSNVISWVRQAPGQGLEWMGGVPPIVDIANYAQRFKGRVTITADESTSTTYMELSSLRSEDTAVYYCASTLGLVLDAMDYWGQGTLVTVSS VL: ETVLTQSPGTLSLSPGERATLSCRASQSLGSSYLAWYQQKPGQAPRLLIYGASSRAPGIPDRFSGSGSGTDFTLTISRLEPEDFAVYYCQQYADSPITFGQGTRLEIK	1.9	
E74A (antibody, V domains shown, GC1008 IgG4 variant) VH: QVQLVQSGAEVKKPGSSVKVSCKASGYTFSSNVISWVRQAPGQGLEWMGGVIPIVDIANYAQRFKGRVTITADASTSTTYMELSSLRSEDTAVYYCASTLGLVLDAMDYWGQGTLVTVSS VL: ETVLTQSPGTLSLSPGERATLSCRASQSLGSSYLAWYQQKPGQAPRLLIYGASSRAPGIPDRFSGSGSGTDFTLTISRLEPEDFAVYYCQQYADSPITFGQGTRLEIK		1
I54Q (antibody, V domains shown, GC1008 IgG4 variant) VH: QVQLVQSGAEVKKPGSSVKVSCKASGYTFSSNVISWVRQAPGQGLEWMGGVIPQVDIANYAQRFKGRVTITADESTSTTYMELSSLRSEDTAVYYCASTLGLVLDAMDYWGQGTLVTVSS VL: ETVLTQSPGTLSLSPGERATLSCRASQSLGSSYLAWYQQKPGQAPRLLIYGASSRAPGIPDRFSGSGSGTDFTLTISRLEPEDFAVYYCQQYADSPITFGQGTRLEIK	1.8	
I54S (antibody, V domains shown, GC1008 IgG4 variant) VH: QVQLVQSGAEVKKPGSSVKVSCKASGYTFSSNVISWVRQAPGQGLEWMGGVIPSVDIANYAQRFKGRVTITADESTSTTYMELSSLRSEDTAVYYCASTLGLVLDAMDYWGQGTLVTVSS VL: ETVLTQSPGTLSLSPGERATLSCRASQSLGSSYLAWYQQKPGQAPRLLIYGASSRAPGIPDRFSGSGSGTDFTLTISRLEPEDFAVYYCQQYADSPITFGQGTRLEIK	1.7	
I54G (antibody, V domains shown, GC1008 IgG4 variant) VH: QVQLVQSGAEVKKPGSSVKVSCKASGYTFSSNVISWVRQAPGQGLEWMGGVIPGVDIANYAQRFKGRVTITADESTSTTYMELSSLRSEDTAVYYCASTLGLVLDAMDYWGQGTLVTVSS VL: ETVLTQSPGTLSLSPGERATLSCRASQSLGSSYLAWYQQKPGQAPRLLIYGASSRAPGIPDRFSGSGSGTDFTLTISRLEPEDFAVYYCQQYADSPITFGQGTRLEIK	1.8	
V55M (antibody, V domains shown, GC1008 IgG4 variant) VH: QVQLVQSGAEVKKPGSSVKVSCKASGYTFSSNVISWVRQAPGQGLEWMGGVIPIMDIANYAQRFKGRVTITADESTSTTYMELSSLRSEDTAVYYCASTLGLVLDAMDYWGQGTLVTVSS VL: ETVLTQSPGTLSLSPGERATLSCRASQSLGSSYLAWYQQKPGQAPRLLIYGASSRAPGIPDRFSGSGSGTDFTLTISRLEPEDFAVYYCQQYADSPITFGQGTRLEIK	1.7	

Further lines, results first:

kd var/kd wt (human TGFβ2)	kd var/kd wt (human TGFβ1)	Binder
	0.9	E74H (antibody, V domains shown, GC1008 IgG4 variant) VH: QVQLVQSGAEVKKPGSSVKVSCKASGYTFSSNVISWVRQAPGQGLEWMGGVIPIVDIANYAQRFKGRVTITADHSTSTTYMELSSLRSEDTAVYYCASTLGLVLDAMDYWGQGTLVTVSS VL: ETVLTQSPGTLSLSPGERATLSCRASQSLGSSYLAWYQQKPGQAPRLLIYGASSRAPGIPDRFSGSGSGTDFTLTISRLEPEDFAVYYCQQYADSPITFGQGTRLEIK
0.8	1.2	E74Q (antibody, V domains shown, GC1008 IgG4 variant) VH: QVQLVQSGAEVKKPGSSVKVSCKASGYTFSSNVISWVRQAPGQGLEWMGGVIPIVDIANYAQRFKGRVTITADQSTSTTYMELSSLRSEDTAVYYCASTLGLVLDAMDYWGQGTLVTVSS VL: ETVLTQSPGTLSLSPGERATLSCRASQSLGSSYLAWYQQKPGQAPRLLIYGASSRAPGIPDRFSGSGSGTDFTLTISRLEPEDFAVYYCQQYADSPITFGQGTRLEIK
	0.8	E74P (antibody, V domains shown, GC1008 IgG4 variant) VH: QVQLVQSGAEVKKPGSSVKVSCKASGYTFSSNVISWVRQAPGQGLEWMGGVIPIVDIANYAQRFKGRVTITADPSTSTTYMELSSLRSEDTAVYYCASTLGLVLDAMDYWGQGTLVTVSS VL: ETVLTQSPGTLSLSPGERATLSCRASQSLGSSYLAWYQQKPGQAPRLLIYGASSRAPGIPDRFSGSGSGTDFTLTISRLEPEDFAVYYCQQYADSPITFGQGTRLEIK
0.7	0.8	E74S (antibody, V domains shown, GC1008 IgG4 variant) VH: QVQLVQSGAEVKKPGSSVKVSCKASGYTFSSNVISWVRQAPGQGLEWMGGVIPIVDIANYAQRFKGRVTITADSSTSTTYMELSSLRSEDTAVYYCASTLGLVLDAMDYWGQGTLVTVSS VL: ETVLTQSPGTLSLSPGERATLSCRASQSLGSSYLAWYQQKPGQAPRLLIYGASSRAPGIPDRFSGSGSGTDFTLTISRLEPEDFAVYYCQQYADSPITFGQGTRLEIK
	0.7	E74Y (antibody, V domains shown, GC1008 IgG4 variant) VH: QVQLVQSGAEVKKPGSSVKVSCKASGYTFSSNVISWVRQAPGQGLEWMGGVIPIVDIANYAQRFKGRVTITADYSTSTTYMELSSLRSEDTAVYYCASTLGLVLDAMDYWGQGTLVTVSS VL: ETVLTQSPGTLSLSPGERATLSCRASQSLGSSYLAWYQQKPGQAPRLLIYGASSRAPGIPDRFSGSGSGTDFTLTISRLEPEDFAVYYCQQYADSPITFGQGTRLEIK
0.8	0.9	E74D (antibody, V domains shown, GC1008 IgG4 variant) VH: QVQLVQSGAEVKKPGSSVKVSCKASGYTFSSNVISWVRQAPGQGLEWMGGVIPIVDIANYAQRFKGRVTITADDSTSTTYMELSSLRSEDTAVYYCASTLGLVLDAMDYWGQGTLVTVSS VL: ETVLTQSPGTLSLSPGERATLSCRASQSLGSSYLAWYQQKPGQAPRLLIYGASSRAPGIPDRFSGSGSGTDFTLTISRLEPEDFAVYYCQQYADSPITFGQGTRLEIK
0.7	1	E74G (antibody, V domains shown, GC1008 IgG4 variant) VH: QVQLVQSGAEVKKPGSSVKVSCKASGYTFSSNVISWVRQAPGQGLEWMGGVIPIVDIANYAQRFKGRVTITADGSTSTTYMELSSLRSEDTAVYYCASTLGLVLDAMDYWGQGTLVTVSS VL: ETVLTQSPGTLSLSPGERATLSCRASQSLGSSYLAWYQQKPGQAPRLLIYGASSRAPGIPDRFSGSGSGTDFTLTISRLEPEDFAVYYCQQYADSPITFGQGTRLEIK
